{"source": "patent US20050222402A1", "about": "“Dna encoding rat bombesin receptor subtype-3 (brs-3) and uses thereof” (priority 2001, published 2005)", "key": {"RB3-AMH (rat)": {"molecular_target": "RB3-AMH (rat) (UniProt Q8K418)", "assay": "cell-based or functional assay"}, "RBB3-E3 (rat; human)": {"molecular_target": "RBB3-E3 (rat; human) (UniProt Q8K418)", "assay": "cell-based or functional assay"}, "[1]": {"molecular_target": "rat bombesin receptor subtype-3 (rat) (UniProt Q8K418)", "assay": "cell-based or functional assay"}, "[2]": {"molecular_target": "human bombesin receptor subtype-3 (human) (UniProt P32247)", "sequence (P32247 whole entry)": "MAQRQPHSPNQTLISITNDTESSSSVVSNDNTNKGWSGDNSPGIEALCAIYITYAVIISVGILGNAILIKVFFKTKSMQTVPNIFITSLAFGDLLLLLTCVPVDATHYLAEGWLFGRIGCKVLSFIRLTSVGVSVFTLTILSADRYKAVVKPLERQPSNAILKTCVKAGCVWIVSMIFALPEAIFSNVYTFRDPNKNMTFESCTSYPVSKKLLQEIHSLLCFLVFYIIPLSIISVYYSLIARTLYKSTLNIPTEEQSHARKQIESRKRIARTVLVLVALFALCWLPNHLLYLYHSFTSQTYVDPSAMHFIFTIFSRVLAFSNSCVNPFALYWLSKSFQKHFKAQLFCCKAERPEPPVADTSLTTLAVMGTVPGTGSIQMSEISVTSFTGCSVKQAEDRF", "assay": "cell-based or functional assay"}, "RB3-IF (rat)": {"molecular_target": "RB3-IF (rat) (UniProt Q8K418)", "assay": "cell-based or functional assay"}, "RB3-VD (rat)": {"molecular_target": "RB3-VD (rat) (UniProt Q8K418)", "assay": "cell-based or functional assay"}, "RB3-SQT (rat)": {"molecular_target": "RB3-SQT (rat) (UniProt Q8K418)", "assay": "cell-based or functional assay"}, "[3]": {"molecular_target": "rat bombesin receptor subtype-3 (rat) (UniProt Q8K418)", "assay": "summary statement in the description; assay not named"}, "RBB3-E3": {"molecular_target": "T1, RBB3-E3 (Rattus norvegicus, UniProt Q8K418, A302V/D306A/E299Q/E303D/P308H/S300T/V307M/V310I/V311F/Y298S)", "T1 construct": "expressed in transfected cells; host or cells: 293EBNA cells, pE3 expression vector", "T1 sequence (Q8K418 1-399 Y298S/E299Q/S300T/A302V/E303D/D306A/V307M/P308H/V310I/V311F)": "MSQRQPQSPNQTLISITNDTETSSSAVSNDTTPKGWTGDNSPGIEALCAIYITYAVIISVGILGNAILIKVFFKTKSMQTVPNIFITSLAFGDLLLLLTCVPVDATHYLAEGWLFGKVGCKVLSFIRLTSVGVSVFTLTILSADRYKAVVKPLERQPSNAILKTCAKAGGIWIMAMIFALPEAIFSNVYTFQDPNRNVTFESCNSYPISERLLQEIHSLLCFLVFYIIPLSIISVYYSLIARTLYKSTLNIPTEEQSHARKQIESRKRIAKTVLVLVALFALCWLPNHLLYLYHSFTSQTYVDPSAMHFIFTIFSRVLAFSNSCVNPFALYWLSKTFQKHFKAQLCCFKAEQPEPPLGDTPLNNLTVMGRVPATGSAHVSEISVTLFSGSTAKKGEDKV", "assay": "Radioligand binding assay with 125I-dYB", "design": "species or system rat/human", "conditions": "competition with [125I]dYB", "description": "After removal of cell nuclei by a low speed centrifugation (1000×g) step, the cell membrane proteins were collected by centrifugation at 35,000×g for 20 minutes. The membrane protein concentration was determined by the Bradford method using BSA as standard.\nAfter a 2 hr incubation at room temperature, the binding reaction was terminated by filtering through a GF/c filter-mate and washing the filter with binding buffer using Packard 96-well Topcount Harvester. The amount of radioligand bound to the receptor was determined by measurement of the radioactivity on the filter through liquid scintillation counting. The non-specific binding was defined as the binding in the presence of 1 uM unlabeled dYB."}, "rat BRS-3 [4]": {"molecular_target": "T2, rat BRS-3 (Rattus norvegicus, UniProt Q8K418)", "T2 construct": "utilized to PCR amplify full-length rat BRS-3 cDNA; expressed in transfected cells; host or cells: 293EBNA cells, pE3 expression vector", "T2 sequence (Q8K418 1-399)": "T1 sequence (Q8K418 1-399 Y298S/E299Q/S300T/A302V/E303D/D306A/V307M/P308H/V310I/V311F) with S298Y, Q299E, T300S, V302A, D303E, A306D, M307V, H308P, I310V, F311V", "assay": "Calcium mobilization assay (FLIPR), transfected 293EBNA cells", "assay_type": "cell-based", "description": "(§1) Wild type and mutant BRS-3 constructs were transfected by using lipofectamine reagents (Life Technologies, Rockville, Md.) into 293EBNA cells (Invitrogen, Carlsbad, Calif.) which support episomal replication of plasmid containing Epstein Bar virus OriP segment. Stable cell lines were obtained by selection with 250 ug/ml hygromycin. The cells were maintained as monolayers in Dulbecco's modified Eagle's medium (Life Technologies, Rockville, Md.) supplemented with 10% fetal bovine serum and incubated at 37° C. in a humidified 5% CO2 incubator.\nThe functional activity of rat BRS-3 was also studied by measuring the agonist-induced calcium mobilization response using a Fluorescence Imaging Plate Reader (Molecular Devices, Sunnyvale, Calif.). Transfected 293EBNA cells were plated onto poly-D-lysine coated 96-well plates with black wall and clear bottom (Becton Dickinson, Franklin Lakes, N.J.). After 16-48 hr culture, the cells were loaded with 4 uM Fluo-3-AM fluorescent calcium-indicator dye (Molecular Probes, Eugene, OR) in assay buffer (Hank's balanced salts solution, 10 mM HEPES, pH7.4, 0.1% bovine serum albumin, 2.5 mM probenecid).\nThe changes in intracellular calcium concentration, as indicated by Fluo-3 fluorescence, were immediately measured by FLIPR. Maximal changes in fluorescence over base line were used to determine agonist response.\nThe EC50 values were mean±S.E. calculated from dose-response curves of 3-5 repeated experiments using FLIPR assays."}, "rat BRS-3 [5]": {"molecular_target": "T2, rat BRS-3", "assay": "Phosphatidylinositol hydrolysis functional assay", "assay_type": "cell-based", "conditions": "peptide at 10 uM, transfected 293EBNA cells", "description": "as §1\nThe functional properties of rat BRS-3 were characterized in transfected 293EBNA cells. The transfected 293EBNA cells were plated onto poly-D-lysine coated 12-well plates and incubated in the medium containing 2 uCi/ml [^3H]myo-inositol. The cells were labeled for 48 hrs, and subsequently incubated for 30 minutes in Hank's balanced salt solution containing 10 mM HEPES, 0.1% BSA and 10 mM LiCl.\nSince a natural agonist of BRS-3 has not been found, members of the bombesin-like peptide family, including GRP, NMB, bombesin and dYB, were used to stimulate the transfected cells described above, in the same buffer, for 1 hr at 37° C. The reaction was stopped by removal of medium and addition of 10 mM formic acid. The inositol monophosphate fraction was then isolated by anion chromatography as described (Berridge et al. Biochem. J. 212: 473-482 (1983), which is hereby incorporated by reference)."}}, "note": "Where a chain is given by its changes, count along the chain named. No end group written: not given here."}
{"substance": "[D-Tyr6-betaAla11-Phe13-Nle14] bombesin (6-14) (peptide)", "values": [{"measurement": "EC50, calcium mobilization (FLIPR)", "setting": "RB3-AMH (rat)", "value": 370, "unit": "nM"}, {"measurement": "fold improvement of dYB potency against rat BRS-3, calcium mobilization", "setting": "RB3-AMH (rat)", "value": 6, "unit": "fold"}, {"measurement": "EC50, calcium mobilization (FLIPR)", "setting": "RBB3-E3 (rat; human)", "value": 2.8, "unit": "nM"}, {"measurement": "EC50, calcium mobilization (FLIPR)", "setting": "[1]", "value": 2200, "unit": "nM"}, {"measurement": "fold difference in dYB potency between human and rodent BRS-3", "setting": "[1]", "value": 1000, "unit": "fold"}, {"measurement": "phosphatidylinositol (PI) hydrolysis, inositol monophosphate production, peptide at 10 uM", "setting": "[1]", "value": 9, "unit": "fold"}, {"measurement": "EC50, calcium mobilization (FLIPR)", "setting": "[2]", "value": 1.2, "unit": "nM"}, {"measurement": "EC50, calcium mobilization (FLIPR)", "setting": "RB3-IF (rat)", "value": 1300, "unit": "nM"}, {"measurement": "EC50, calcium mobilization (FLIPR)", "setting": "RB3-VD (rat)", "value": 930, "unit": "nM"}, {"measurement": "EC50, calcium mobilization (FLIPR)", "setting": "RB3-SQT (rat)", "value": 390, "unit": "nM"}, {"measurement": "fold improvement of dYB potency against rat BRS-3, calcium mobilization", "setting": "RB3-SQT (rat)", "value": 5, "unit": "fold"}, {"measurement": "fold lower affinity than human BRS-3", "setting": "[3]", "value": 1000, "unit": "fold"}]}
{"substance": "phyllolitorin", "values": [{"measurement": "binding affinity", "setting": "RBB3-E3", "value": "uM low affinities"}]}
{"substance": "neuromedin B [NMB]", "values": [{"measurement": "intracellular calcium response", "setting": "rat BRS-3 [4]; concentrations below 1.0 uM", "value": "none of the four peptides could stimulate a significant calcium response"}, {"measurement": "intracellular calcium response", "setting": "rat BRS-3 [4]; peptide at 10 uM", "value": "transient increase in intracellular calcium concentration"}, {"measurement": "binding affinity", "setting": "RBB3-E3", "value": "uM low affinities"}, {"measurement": "stimulation of phosphatidylinositol (PI) hydrolysis (inositol monophosphate production)", "setting": "rat BRS-3 [5]", "value": "significant increase"}]}
{"substance": "gastrin-releasing peptide (VPLPAGGGTVLTKMYPRGNHWAVGHLM; ends and bridges not checked; UniProt P07492 24-50, looked up) [GRP, bombesin-like peptide found in mammals]", "values": [{"measurement": "intracellular calcium response", "setting": "rat BRS-3 [4]; concentrations below 1.0 uM", "value": "none of the four peptides could stimulate a significant calcium response"}, {"measurement": "intracellular calcium response", "setting": "rat BRS-3 [4]; peptide at 10 uM", "value": "transient increase in intracellular calcium concentration"}, {"measurement": "binding affinity", "setting": "RBB3-E3", "value": "uM low affinities"}, {"measurement": "stimulation of phosphatidylinositol (PI) hydrolysis (inositol monophosphate production)", "setting": "rat BRS-3 [5]", "value": "significant increase"}]}
